Assay results reported in the supplement of paper PMC9112550, “Optimization of the antimicrobial peptide Bac7 by deep mutational scanning” (BMC Biology, 2022).

Tested on: Escherichia coli TOP10
Experiment: shrunken log2 fold change of peptide-encoding DNA abundance (4.5 h post-induction vs induction); higher = less antimicrobial activity (less host growth inhibition)
Conditions: time post-induction: 4.5 h; library: site-saturation at positions 5, 18, 19, 20
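Further: peptides expressed intracellularly from a pBAD plasmid library in pooled LB shake-flask culture, induced with 0.3% L-arabinose, DNA abundance read by NGS, three biological replicates, DESeq2 with apeglm shrinkage.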

RRIRCRPPRLPRPRPRPGSVPRP and RRIRRRPPRLPRPRPRPFGVPRP are within 0.2 log units of each other in “shrunken log2 fold change” value: 0.102 for the first, 0.0764 for the second.

RRIRPRPPRLPRPRPRPNNHPRP and RRIRTRPPRLPRPRPRPRVYPRP are within 0.2 log units of each other in “shrunken log2 fold change” value: -0.607 for the first, -0.454 for the second.

Compared with RRIRPRPPRLPRPRPRPTNFPRP, RRIRRRPPRLPRPRPRPMIDPRP is lower in “shrunken log2 fold change” value: 0.221 for the first, -0.1 for the second.

Compared with RRIRYRPPRLPRPRPRPITSPRP, RRIRARPPRLPRPRPRPEEAPRP is higher in “shrunken log2 fold change” value: 0.0314 for the first, 3.84 for the second.

First: RRIRFRPPRLPRPRPRPFGWPRP
Second: RRIRLRPPRLPRPRPRPEHNPRP
The “shrunken log2 fold change” value of the first is higher: 0.0193 for the first, -0.204 for the second.

RRIRTRPPRLPRPRPRPLDRPRP and RRIRRRPPRLPRPRPRPKNPPRP are within 0.2 log units of each other in “shrunken log2 fold change” value: 0.0153 for the first, 0.124 for the second.

Compared with RRIRGRPPRLPRPRPRPFTEPRP, RRIRWRPPRLPRPRPRPVGQPRP is higher in “shrunken log2 fold change” value: 0.104 for the first, 0.413 for the second.

First: RRIRRRPPRLPRPRPRPYSHPRP
Second: RRIRNRPPRLPRPRPRPSAKPRP
The “shrunken log2 fold change” value of the first is lower: -0.528 for the first, -0.0395 for the second.

Compared with RRIRERPPRLPRPRPRPGKIPRP, RRIRPRPPRLPRPRPRPMKSPRP is lower in “shrunken log2 fold change” value: 0.139 for the first, -0.0679 for the second.

RRIRKRPPRLPRPRPRPHKVPRP and RRIRFRPPRLPRPRPRPVMWPRP are within 0.2 log units of each other in “shrunken log2 fold change” value: -0.033 for the first, 0.0942 for the second.

RRIRRRPPRLPRPRPRPHWIPRP and RRIRWRPPRLPRPRPRPWSGPRP are within 0.2 log units of each other in “shrunken log2 fold change” value: 0.0716 for the first, 0.076 for the second.

RRIRERPPRLPRPRPRPRRIPRP and RRIRWRPPRLPRPRPRPCDHPRP are within 0.2 log units of each other in “shrunken log2 fold change” value: -0.00822 for the first, -0.00122 for the second.

Compared with RRIRDRPPRLPRPRPRPLIIPRP, RRIRMRPPRLPRPRPRPKSQPRP is higher in “shrunken log2 fold change” value: -0.0486 for the first, 2.06 for the second.

Going from RRIRFRPPRLPRPRPRPMNMPRP to RRIRCRPPRLPRPRPRPCDGPRP, the “shrunken log2 fold change” value rises from -0.546 to 0.0624.

RRIRTRPPRLPRPRPRPQWWPRP and RRIRGRPPRLPRPRPRPCMSPRP are within 0.2 log units of each other in “shrunken log2 fold change” value: 0.199 for the first, 0.151 for the second.

First: RRIRIRPPRLPRPRPRPLGKPRP
Second: RRIRARPPRLPRPRPRPFWPPRP
The “shrunken log2 fold change” value of the first is lower: -0.248 for the first, 0.412 for the second.

RRIRRRPPRLPRPRPRPTMEPRP and RRIRWRPPRLPRPRPRPVDGPRP are within 0.2 log units of each other in “shrunken log2 fold change” value: -0.0829 for the first, 0.0816 for the second.

RRIRPRPPRLPRPRPRPTGFPRP and RRIRTRPPRLPRPRPRPKSPPRP are within 0.2 log units of each other in “shrunken log2 fold change” value: 0.0273 for the first, -0.0758 for the second.

First: RRIRSRPPRLPRPRPRPIGSPRP
Second: RRIRFRPPRLPRPRPRPLLTPRP
The “shrunken log2 fold change” value of the first is higher: 0.136 for the first, -0.166 for the second.

Going from RRIRHRPPRLPRPRPRPAMAPRP to RRIRGRPPRLPRPRPRPYIFPRP, the “shrunken log2 fold change” value falls from 0.126 to -0.135.

Going from RRIRRRPPRLPRPRPRPRRDPRP to RRIRGRPPRLPRPRPRPYPLPRP, the “shrunken log2 fold change” value falls from 0.19 to -0.236.

Compared with RRIRCRPPRLPRPRPRPDTIPRP, RRIRYRPPRLPRPRPRPGLRPRP is higher in “shrunken log2 fold change” value: -0.738 for the first, 0.0396 for the second.

First: RRIRMRPPRLPRPRPRPLESPRP
Second: RRIRFRPPRLPRPRPRPDSFPRP
The “shrunken log2 fold change” value of the first is higher: 2.66 for the first, -0.00668 for the second.

RRIRQRPPRLPRPRPRPDCQPRP and RRIRCRPPRLPRPRPRPEKAPRP are within 0.2 log units of each other in “shrunken log2 fold change” value: -0.0643 for the first, 0.0655 for the second.

RRIRPRPPRLPRPRPRPERQPRP and RRIRTRPPRLPRPRPRPLPPPRP are within 0.2 log units of each other in “shrunken log2 fold change” value: 0.153 for the first, 0.333 for the second.

Going from RRIRQRPPRLPRPRPRPSPRPRP to RRIRRRPPRLPRPRPRPAMYPRP, the “shrunken log2 fold change” value falls from 0.31 to -0.145.

RRIRTRPPRLPRPRPRPRELPRP and RRIRCRPPRLPRPRPRPGIGPRP are within 0.2 log units of each other in “shrunken log2 fold change” value: 0.267 for the first, 0.295 for the second.

Compared with RRIRVRPPRLPRPRPRPPPDPRP, RRIRSRPPRLPRPRPRPTFVPRP is lower in “shrunken log2 fold change” value: 0.834 for the first, -0.15 for the second.

Compared with RRIRERPPRLPRPRPRPPLPPRP, RRIRERPPRLPRPRPRPPKIPRP is lower in “shrunken log2 fold change” value: 0.151 for the first, -0.28 for the second.

RRIRYRPPRLPRPRPRPIRFPRP and RRIRYRPPRLPRPRPRPVYGPRP are within 0.2 log units of each other in “shrunken log2 fold change” value: -0.0383 for the first, -0.0722 for the second.

RRIRVRPPRLPRPRPRPIKIPRP and RRIRFRPPRLPRPRPRPNDFPRP are within 0.2 log units of each other in “shrunken log2 fold change” value: -0.251 for the first, -0.228 for the second.

First: RRIRQRPPRLPRPRPRPCVVPRP
Second: RRIRSRPPRLPRPRPRPTKCPRP
The “shrunken log2 fold change” value of the first is higher: 0.0959 for the first, -0.258 for the second.

RRIRIRPPRLPRPRPRPCKWPRP and RRIRLRPPRLPRPRPRPFRFPRP are within 0.2 log units of each other in “shrunken log2 fold change” value: -0.38 for the first, -0.212 for the second.

Going from RRIRCRPPRLPRPRPRPRQPPRP to RRIRHRPPRLPRPRPRPDLIPRP, the “shrunken log2 fold change” value falls from 0.249 to -0.0224.

Going from RRIRPRPPRLPRPRPRPCAPPRP to RRIRRRPPRLPRPRPRPYPMPRP, the “shrunken log2 fold change” value falls from 0.159 to -0.187.

First: RRIRQRPPRLPRPRPRPPDVPRP
Second: RRIRERPPRLPRPRPRPQYRPRP
The “shrunken log2 fold change” value of the first is higher: 0.124 for the first, -0.612 for the second.

RRIRYRPPRLPRPRPRPYDGPRP and RRIRFRPPRLPRPRPRPFADPRP are within 0.2 log units of each other in “shrunken log2 fold change” value: -0.155 for the first, -0.0172 for the second.

RRIRARPPRLPRPRPRPCVLPRP and RRIRSRPPRLPRPRPRPPSTPRP are within 0.2 log units of each other in “shrunken log2 fold change” value: -0.0267 for the first, 0.141 for the second.

Compared with RRIRNRPPRLPRPRPRPMVCPRP, RRIRERPPRLPRPRPRPCMLPRP is lower in “shrunken log2 fold change” value: -0.018 for the first, -0.241 for the second.

Going from RRIRTRPPRLPRPRPRPAMWPRP to RRIRSRPPRLPRPRPRPAFDPRP, the “shrunken log2 fold change” value rises from 0.35 to 1.02.

RRIRRRPPRLPRPRPRPCLKPRP and RRIRWRPPRLPRPRPRPGMLPRP are within 0.2 log units of each other in “shrunken log2 fold change” value: -0.184 for the first, -0.11 for the second.

First: RRIRQRPPRLPRPRPRPYFMPRP
Second: RRIRRRPPRLPRPRPRPHIGPRP
The “shrunken log2 fold change” value of the first is lower: -0.89 for the first, -0.155 for the second.

Going from RRIRGRPPRLPRPRPRPCAEPRP to RRIRWRPPRLPRPRPRPKEHPRP, the “shrunken log2 fold change” value falls from 1.91 to 0.126.

RRIRHRPPRLPRPRPRPNEDPRP and RRIRHRPPRLPRPRPRPCRTPRP are within 0.2 log units of each other in “shrunken log2 fold change” value: -0.081 for the first, 0.00884 for the second.

RRIRCRPPRLPRPRPRPTFQPRP and RRIRSRPPRLPRPRPRPHSEPRP are within 0.2 log units of each other in “shrunken log2 fold change” value: -0.0555 for the first, -0.0351 for the second.

Going from RRIRHRPPRLPRPRPRPYWNPRP to RRIRTRPPRLPRPRPRPETHPRP, the “shrunken log2 fold change” value rises from -0.98 to 0.179.

RRIRDRPPRLPRPRPRPAGLPRP and RRIRHRPPRLPRPRPRPWDRPRP are within 0.2 log units of each other in “shrunken log2 fold change” value: 0.0252 for the first, -0.0232 for the second.

Compared with RRIRERPPRLPRPRPRPESWPRP, RRIRHRPPRLPRPRPRPVRIPRP is lower in “shrunken log2 fold change” value: 0.343 for the first, 0.0159 for the second.

First: RRIRARPPRLPRPRPRPKQKPRP
Second: RRIRSRPPRLPRPRPRPVNEPRP
The “shrunken log2 fold change” value of the first is higher: 0.529 for the first, -0.0746 for the second.

First: RRIRPRPPRLPRPRPRPVYCPRP
Second: RRIRERPPRLPRPRPRPKDTPRP
The “shrunken log2 fold change” value of the first is lower: -0.375 for the first, -0.115 for the second.

Compared with RRIRYRPPRLPRPRPRPDEKPRP, RRIRVRPPRLPRPRPRPCWPPRP is higher in “shrunken log2 fold change” value: -0.102 for the first, 0.237 for the second.

RRIRHRPPRLPRPRPRPSVDPRP and RRIRDRPPRLPRPRPRPKLLPRP are within 0.2 log units of each other in “shrunken log2 fold change” value: 0.0776 for the first, 0.0314 for the second.

Compared with RRIRDRPPRLPRPRPRPMNVPRP, RRIRQRPPRLPRPRPRPPVDPRP is lower in “shrunken log2 fold change” value: 0.0651 for the first, -0.19 for the second.

RRIRDRPPRLPRPRPRPHNKPRP and RRIRLRPPRLPRPRPRPYVKPRP are within 0.2 log units of each other in “shrunken log2 fold change” value: -0.373 for the first, -0.182 for the second.

First: RRIRMRPPRLPRPRPRPDRLPRP
Second: RRIRLRPPRLPRPRPRPGRFPRP
The “shrunken log2 fold change” value of the first is higher: 0.55 for the first, 0.226 for the second.

RRIRHRPPRLPRPRPRPTCQPRP and RRIRLRPPRLPRPRPRPDYIPRP are within 0.2 log units of each other in “shrunken log2 fold change” value: -0.044 for the first, -0.161 for the second.

RRIRCRPPRLPRPRPRPLEHPRP and RRIRPRPPRLPRPRPRPDKAPRP are within 0.2 log units of each other in “shrunken log2 fold change” value: -0.167 for the first, 0.00631 for the second.

First: RRIRWRPPRLPRPRPRPYNDPRP
Second: RRIRGRPPRLPRPRPRPQSQPRP
The “shrunken log2 fold change” value of the first is lower: -0.194 for the first, 0.139 for the second.

First: RRIRWRPPRLPRPRPRPQIIPRP
Second: RRIRNRPPRLPRPRPRPMIRPRP
The “shrunken log2 fold change” value of the first is lower: -0.805 for the first, -0.0231 for the second.

First: RRIRARPPRLPRPRPRPFQSPRP
Second: RRIRLRPPRLPRPRPRPIIPPRP
The “shrunken log2 fold change” value of the first is higher: 0.105 for the first, -0.195 for the second.

Compared with RRIRTRPPRLPRPRPRPCCEPRP, RRIRIRPPRLPRPRPRPCFGPRP is lower in “shrunken log2 fold change” value: -0.105 for the first, -0.415 for the second.

RRIRIRPPRLPRPRPRPMQHPRP and RRIRNRPPRLPRPRPRPVMMPRP are within 0.2 log units of each other in “shrunken log2 fold change” value: -0.289 for the first, -0.198 for the second.

For RRIRERPPRLPRPRPRPLLDPRP, the “shrunken log2 fold change” value was -0.0911.
